The values below come from patent publication US20160304565A1 (US Dept. of Health and Human Services, published 2016).

The series deals with the molecule itself. Briefly: gel filtration chromatography (self-association).

B1: E. coli-produced, properly folded RSV G0-dTM (67-298) protein of the RSV-A2 strain, C-terminal His6 tag (other)
chain: HKVTPTTAIIQDATSQIKNTTPTYLTQNPQLGISPSNPSEITSQITTILASTTPGVKSTLQSTTVKTKNTTTTQTQPSKPTTKQRQNKPPSKPNNDFHFEVFNFVPCSICSNNPTCWAICKRIPNKKPGKKTTTKPTKKPTLKTTKKDPKPQTTKSKEVPTTKPTEEPTINTTKTNIITTLLTSNTTGNPELTSQMETFHSTSSEGNPSPSQVSTTSEYPSQPSSPPNTPRQHHHHHH
notes: also called REG; bacterially produced RSV-A2 G
Take B1: the binding result was “binds”.
